Article PMC3961188, “The bHLH Factors Extramacrochaetae and Daughterless Control Cell Cycle in Drosophila Imaginal Discs through the Transcriptional Regulation of the cdc25 Phosphatase string”

T1: Daughterless (Da), GST fusion (Drosophila melanogaster, UniProt P11420 1-710)
T1 sequence: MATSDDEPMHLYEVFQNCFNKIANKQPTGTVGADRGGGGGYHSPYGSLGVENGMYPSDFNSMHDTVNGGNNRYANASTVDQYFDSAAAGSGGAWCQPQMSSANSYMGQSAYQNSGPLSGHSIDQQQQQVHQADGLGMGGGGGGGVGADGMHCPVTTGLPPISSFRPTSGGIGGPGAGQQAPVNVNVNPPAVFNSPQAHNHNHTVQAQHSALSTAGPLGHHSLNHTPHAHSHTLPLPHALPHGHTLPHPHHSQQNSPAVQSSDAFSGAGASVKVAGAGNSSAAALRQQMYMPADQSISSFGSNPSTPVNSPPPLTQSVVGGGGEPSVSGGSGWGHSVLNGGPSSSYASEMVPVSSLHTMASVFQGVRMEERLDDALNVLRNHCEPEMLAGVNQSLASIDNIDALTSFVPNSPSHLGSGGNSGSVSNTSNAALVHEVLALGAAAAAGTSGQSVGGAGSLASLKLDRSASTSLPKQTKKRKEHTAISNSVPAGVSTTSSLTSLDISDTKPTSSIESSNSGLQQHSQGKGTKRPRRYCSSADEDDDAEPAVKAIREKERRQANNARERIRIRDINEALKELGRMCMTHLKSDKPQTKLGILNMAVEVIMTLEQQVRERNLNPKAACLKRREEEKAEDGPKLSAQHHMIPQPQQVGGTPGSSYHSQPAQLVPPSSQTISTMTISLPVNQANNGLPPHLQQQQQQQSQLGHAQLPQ

B1: stg prom (cy5 / cy3) (dsDNA)
DNA 1: TAGCTCATCAGCTGATCGTGA
DNA 2: TCACGATCAGCTGATGAGCTA
B2: stg prom* (cy5) (dsDNA)
DNA 1: TAGCTCATACTAGTATCGTGA
DNA 2: TCACGATACTAGTATGAGCTA

Experiments:
[1] = target: T1, Daughterless (Da), GST fusion; assay: EMSA; Cy5 and Cy3 versions of the probe; not stated in the material (EMSA buffer, salt, pH and temperature not given); settings: protein: recombinant; tags: N-terminal GST (pDEST 15); chain copies: 2; blunt
[2] = target: T1, Daughterless (Da), GST fusion; assay: EMSA; direct Cy5 probe; not stated in the material (EMSA buffer, salt, pH and temperature not given); settings: protein: recombinant; tags: N-terminal GST (pDEST 15); chain copies: 2; blunt

Binder	binding result [1]	binding result [2]
B1	binds	
B2		no binding
